# Results as given in article PMC4825646, “MEC-10 and MEC-19 Reduce the Neurotoxicity of the MEC-4(d) DEG/ENaC Channel in Caenorhabditis elegans” (G3: Genes|Genomes|Genetics, 2016).
# Biological target: the molecule itself
# Assay: single-molecule photobleaching step counting (TIRF microscopy); MEC-4::EGFP on the Xenopus oocyte surface in the presence of MEC-19, 1-2 d after cRNA injection; observed bleaching steps compared with the binomial distribution predicted for trimers
protein,measurement,value
"C-terminally EGFP-tagged MEC-4 (natural protein, C. elegans, UniProt P24612 1-768, looked up, MEC-4, C. elegans DEG/ENaC protein, wild type; construct described in Chen et al. (2015); also called MEC-4::EGFP; source: Xenopus laevis oocytes, cRNA injected, on the oocyte surface; not shown: EGFP, C-terminal, kept) MSWMQNLKNYQHLRDPSEYMSQVYGDPLAYLQETTKFVTEREYYEDFGYGECFNSTESEVQCELITGEFDPKLLPYDKRLAWHFKEFCYKTSAHGIPMIGEAPNVYYRAVWVVLFLGCMIMLYLNAQSVLDKYNRNEKIVDIQLKFDTAPFPAITLCNLNPYKASLATSVDLVKRTLSAFDGAMGKAGGNKDHEEEREVVTEPPTTPAPTTKPARRRGKRDLSGAFFEPGFARCLCGSQGSSEQEDKDEEKEEELLETTTKKVFNINDADEEWDGMEEYDNEHYENYDVEATTGMNMMEECQSERTKFDEPTGFDDRCICAFDRSTHDAWPCFLNGTWETTECDTCNEHAFCTKDNKTAKGHRSPCICAPSRFCVAYNGKTPPIEIWTYLQGGTPTEDPNFLEAMGFQGMTDEVAIVTKAKENIMFAMATLSMQDRERLSTTKRELVHKCSFNGKACDIEADFLTHIDPAFGSCFTFNHNRTVNLTSIRAGPMYGLRMLVYVNASDYMPTTEATGVRLTIHDKEDFPFPDTFGYSAPTGYVSSFGLRLRKMSRLPAPYGDCVPDGKTSDYIYSNYEYSVEGCYRSCFQQLVLKECRCGDPRFPVPENARHCDAADPIARKCLDARMNDLGGLHGSFRCRCQQPCRQSIYSVTYSPAKWPSLSLQIQLGSCNGTAVECNKHYKENGAMVEVFYEQLNFEMLTESEAYGFVNLLADFGGQLGLWCGISFLTCCEFVFLFLETAYMSAEHNYSLYKKKKAEKAKKIASGSF",stoichiometry N,3
